For this data set, the target named is T1, recombinant NRF-1 (rNRF-1) (human, UniProt Q16656 1-503).
T1 sequence: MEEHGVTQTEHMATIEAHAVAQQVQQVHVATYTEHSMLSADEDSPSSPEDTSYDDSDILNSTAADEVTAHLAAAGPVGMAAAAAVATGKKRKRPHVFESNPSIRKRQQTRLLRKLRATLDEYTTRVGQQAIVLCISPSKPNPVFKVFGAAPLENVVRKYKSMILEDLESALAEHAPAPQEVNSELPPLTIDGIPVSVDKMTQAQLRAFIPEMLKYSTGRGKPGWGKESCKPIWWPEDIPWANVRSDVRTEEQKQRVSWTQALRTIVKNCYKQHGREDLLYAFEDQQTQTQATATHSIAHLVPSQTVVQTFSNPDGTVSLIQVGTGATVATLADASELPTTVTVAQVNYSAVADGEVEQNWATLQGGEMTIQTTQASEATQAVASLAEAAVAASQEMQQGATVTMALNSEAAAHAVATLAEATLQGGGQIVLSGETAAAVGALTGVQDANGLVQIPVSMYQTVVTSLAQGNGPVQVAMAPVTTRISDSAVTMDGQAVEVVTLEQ
The experiment in a line: EMSA; 0.03-5 ug protein, concentration-dependent; 25 mM HEPES pH 7.6, 5 mM MgCl2, 34 mM KCl, 50 ug/mL poly dI:dC, 0.5 mg/mL BSA, on ice 15 min; 6% acrylamide 0.25x TBE gel. As to conditions: tags: N-terminal MBP fusion (pMAL-c2), chain copies: 2, label: 32P.

B1: Gb-270 (dsDNA)
DNA 1: CTGCCGCGCAGGCGCCGGGC
DNA 2: GCCCGGCGCCTGCGCGGCAG
As to B1, the binding result is on record as “binds”.

For the origin of these results see publication PMC3127848, “Decreased expression of BRCA1 in SK-BR-3 cells is the result of aberrant activation of the GABP Beta promoter by an NRF-1-containing complex”.
